To fix the notation:
T1: Streptococcus pyogenes type II-A Cas1 with a C-terminal (His)6 tag (Streptococcus pyogenes, UniProt Q99ZW1 1-289)
T1 sequence (looked up): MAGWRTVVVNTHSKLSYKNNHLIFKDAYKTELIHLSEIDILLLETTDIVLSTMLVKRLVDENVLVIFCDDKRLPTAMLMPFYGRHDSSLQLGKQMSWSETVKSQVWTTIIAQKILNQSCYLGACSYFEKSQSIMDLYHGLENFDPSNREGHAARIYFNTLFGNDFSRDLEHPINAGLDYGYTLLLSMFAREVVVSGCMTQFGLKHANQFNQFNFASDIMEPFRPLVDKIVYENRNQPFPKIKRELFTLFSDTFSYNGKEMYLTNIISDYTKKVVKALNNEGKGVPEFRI

B1: N-terminal (His)6-MBP-tagged full-length Streptococcus pyogenes type II-A Cas2 (natural protein, UniProt Q99ZW0 1-113, looked up)
chain: MSYRYMRMILMFDMPTDTAEERKAYRKFRKFLLSEGFIMHQFSIYSKLLLNNTANNAMIGRLREHNPNKGNITLLTVTEKQFARMIYLHGERNNCIANSDERLVFLGEAFDES
B2: Cas1-(His)6-MBP-Cas2 complex (complex, Streptococcus pyogenes)
chain 1: T1 sequence (looked up)
chain 2: B1 chain
B3: Streptococcus pyogenes type II-A Csn2 (natural protein, UniProt Q99ZV9 1-220, looked up)
chain: MNLNFSLLDEPIPLRGGTILVLEDVCVFSKIVQYCYQYEEDSELKFFDHKMKTIKESEIMLVTDILGFDVNSSTILKLIHADLESQFNEKPEVKSMIDKLVATITELIVFECLENELDLEYDEITILELIKSLGVKVETQSDTIFEKCLEILQIFKYLTKKKLLIFVNSGAFLTKDEVASLQEYISLTNLTVLFLEPRELYDFPQYILDEDYFLITKNMV

For experiment [1], the target named is T1, Streptococcus pyogenes type II-A Cas1 …. The experiment is described as follows: ITC.
Experiment [2] addresses B3. The experiment is described as follows: ITC.
Experiment [3] addresses B2. The experiment is described as follows: ITC.
The target in experiment [4] is Streptococcus pyogenes type II-A Cas9 with a C-terminal (His)6 tag (Streptococcus pyogenes, UniProt Q99ZW2 1-1368). The experiment is described as follows: SPR.
Chain of Streptococcus pyogenes type II-A Cas9 with a C-terminal (His)6 tag (Q99ZW2 whole entry): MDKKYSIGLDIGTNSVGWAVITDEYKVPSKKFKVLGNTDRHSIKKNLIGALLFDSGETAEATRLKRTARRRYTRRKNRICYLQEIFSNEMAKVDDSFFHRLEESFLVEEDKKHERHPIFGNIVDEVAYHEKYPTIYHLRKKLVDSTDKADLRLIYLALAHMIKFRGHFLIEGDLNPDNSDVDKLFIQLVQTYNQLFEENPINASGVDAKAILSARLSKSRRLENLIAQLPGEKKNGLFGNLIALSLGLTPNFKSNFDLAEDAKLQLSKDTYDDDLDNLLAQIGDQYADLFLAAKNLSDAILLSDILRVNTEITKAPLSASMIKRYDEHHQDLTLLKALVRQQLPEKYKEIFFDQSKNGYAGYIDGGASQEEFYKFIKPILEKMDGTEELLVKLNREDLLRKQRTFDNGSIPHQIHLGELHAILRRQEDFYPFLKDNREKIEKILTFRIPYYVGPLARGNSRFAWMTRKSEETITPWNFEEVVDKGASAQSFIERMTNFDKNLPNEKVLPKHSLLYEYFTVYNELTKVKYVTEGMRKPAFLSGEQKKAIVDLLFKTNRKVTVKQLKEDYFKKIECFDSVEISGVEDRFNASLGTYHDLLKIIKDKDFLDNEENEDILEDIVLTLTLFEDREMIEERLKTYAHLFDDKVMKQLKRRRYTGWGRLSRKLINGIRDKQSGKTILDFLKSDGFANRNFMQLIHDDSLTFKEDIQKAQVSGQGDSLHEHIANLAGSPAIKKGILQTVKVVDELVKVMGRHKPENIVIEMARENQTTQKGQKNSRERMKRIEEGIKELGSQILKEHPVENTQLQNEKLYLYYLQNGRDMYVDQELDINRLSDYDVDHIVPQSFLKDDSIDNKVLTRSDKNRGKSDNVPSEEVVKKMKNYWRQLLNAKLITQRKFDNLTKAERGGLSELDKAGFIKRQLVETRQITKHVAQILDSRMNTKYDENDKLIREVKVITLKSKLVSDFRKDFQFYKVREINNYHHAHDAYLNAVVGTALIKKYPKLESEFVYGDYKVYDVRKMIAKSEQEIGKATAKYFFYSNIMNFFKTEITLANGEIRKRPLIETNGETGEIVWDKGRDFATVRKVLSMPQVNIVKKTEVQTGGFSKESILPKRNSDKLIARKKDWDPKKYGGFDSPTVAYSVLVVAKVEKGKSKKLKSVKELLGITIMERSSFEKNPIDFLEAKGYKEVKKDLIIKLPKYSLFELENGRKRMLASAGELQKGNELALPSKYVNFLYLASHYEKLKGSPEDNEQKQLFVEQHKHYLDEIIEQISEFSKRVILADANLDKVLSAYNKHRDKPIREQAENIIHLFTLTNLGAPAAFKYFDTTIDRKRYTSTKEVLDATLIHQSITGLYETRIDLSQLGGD

Take B1: in experiment [1], the affinity, expressed as Kd, was 240 nM and the “stoichiometry N” value was 0.44 (His)6-MBP-Cas2 per Cas1. On to B2, for which the “stoichiometry N” value in experiment [2] was 2.1 Cas1–(His)6-MBP-Cas2 complex per Csn2 tetramer. Consider B3, for which the Kd is 520 nM in experiment [3] and 110 nM in experiment [4].

The values above are taken from publication PMC6182153 (Nucleic Acids Research, 2018).
